Results: PMC6235402, “Paired Immunoglobulin-like Type 2 Receptor Alpha G78R variant alters ligand binding and confers protection to Alzheimer's disease” (PLoS Genetics, 2018)
Read-outs that look alike come from different tables or passages of the source.

B1: NPDC1 extracellular domain (1-190 aa) fused to murine IgG2a Fc (Fc fusion)
chain: GHPDVAACPGSLDCALKRRARCPPGAHACGPCLQPFQEDQQGLCVPRMRRPPGGGRPQPRLEDEIDFLAQELARKESGHSTPPLPKDRQRLPEPATLGFSARGQGLELGLPSTPGTPTPTPHTSLGSPVSSDPVHMSPLEPRGGQGDGLALVLILA
B2: NPDC1-His (ligand, human, UniProt Q9NQX5 35-190, looked up)
chain: B1 chain
notes: the construct and its limits are not described in the methods; Likely a soluble extracellular construct

What was measured:
[1] = target: PILRA S80G, full length (human) (UniProt Q9UKJ1); assay: flow cytometry on cells; 293T cells transfected with full-length PILRA variants, 48 h; incubated with soluble NPDC1-mFc at 50 ug/ml for 30 min on ice; anti-PILRA (APC) and anti-mouse IgG2a (FITC); percent of double-positive cells relative to G78 PILRA (100%)
[2] = target: PILRA F76A, full length (human) (UniProt Q9UKJ1); assay: as above
[3] = target: PILRA R72A, full length (human) (UniProt Q9UKJ1); assay: as above
[4] = target: PILRA R78 (AD protective) variant, G78R (rs1859788), full length (human) (UniProt Q9UKJ1); assay: as above
[5] = target: PILRA S141A, full length (human) (UniProt Q9UKJ1); assay: as above
[6] = target: PILRA Q140A, full length (human) (UniProt Q9UKJ1); assay: as above
[7] = target: PILRA R78 (AD protective) variant, G78R (rs1859788), full length (human) (UniProt Q9UKJ1); assay: as above; remark: listed apart in the source
[8] = target: PILRA R78 (AD protective, G78R) extracellular domain (1-196 aa) fused to murine IgG2a Fc (human) (UniProt Q9UKJ1); assay: SPR; NPDC1-His binding to mIgG2a-tagged PILRA variants (S6C Fig); who was immobilised and the conditions not given
[9] = target: T1, PILRA G78 (AD risk) extracellular domain (1-196 aa) fused to murine IgG2a Fc (human, UniProt Q9UKJ1 20-196, R78G (by the check's mend)); assay: as above; settings: both partners purified
T1 construct: signal peptide in the construct; PILRA, human, ECD residues 1-196 of AJ400841, glycine at position 78; also called G78 PILRA-mFc; PILRA-mFC; not shown: Fc (murine IgG2a), C-terminal, kept
T1 sequence (Q9UKJ1 20-196 R78G): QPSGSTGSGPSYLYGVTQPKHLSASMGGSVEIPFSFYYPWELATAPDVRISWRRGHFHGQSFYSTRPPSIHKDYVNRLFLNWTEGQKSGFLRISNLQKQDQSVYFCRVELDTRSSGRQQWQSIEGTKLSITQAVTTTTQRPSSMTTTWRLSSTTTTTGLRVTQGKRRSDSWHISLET

Sequence of PILRA R78 (AD protective) variant, G78R (rs1859788), full length (human) (Q9UKJ1 20-303, stated change not applied): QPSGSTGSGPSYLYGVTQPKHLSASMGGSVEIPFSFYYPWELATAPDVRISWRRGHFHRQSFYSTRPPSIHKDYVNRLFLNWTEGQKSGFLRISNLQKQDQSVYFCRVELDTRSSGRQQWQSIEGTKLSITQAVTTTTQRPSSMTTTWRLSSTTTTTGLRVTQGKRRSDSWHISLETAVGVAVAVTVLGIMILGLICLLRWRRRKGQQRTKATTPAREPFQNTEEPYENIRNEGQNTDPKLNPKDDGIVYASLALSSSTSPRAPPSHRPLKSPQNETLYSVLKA
Sequence of PILRA R72A, full length (human) (Q9UKJ1 20-303 R72A): as the sequence (Q9UKJ1 20-303, stated change not applied) above, with R53A counted along it
Sequence of PILRA F76A, full length (human) (Q9UKJ1 20-303 F76A): as the sequence (Q9UKJ1 20-303, stated change not applied) above, with F57A counted along it
Sequence of PILRA S80G, full length (human) (Q9UKJ1 20-303 S80G): as the sequence (Q9UKJ1 20-303, stated change not applied) above, with S61G counted along it
Sequence of PILRA Q140A, full length (human) (Q9UKJ1 20-303 Q140A): as the sequence (Q9UKJ1 20-303, stated change not applied) above, with Q121A counted along it
Sequence of PILRA S141A, full length (human) (Q9UKJ1 20-303 S141A): as the sequence (Q9UKJ1 20-303, stated change not applied) above, with S122A counted along it

| Binder | percent of G78 PILRA binding [1] | percent of G78 PILRA binding [2] | percent of G78 PILRA binding [3] | percent of G78 PILRA binding [4] | percent of G78 PILRA binding [5] | percent of G78 PILRA binding [6] | percent of G78 PILRA binding [7] | Kd [8] | kon [8] | Kd [9] | kon [9] |
| --- | --- | --- | --- | --- | --- | --- | --- | --- | --- | --- | --- |
| B1 | 60 % of G78 | 20 % of G78 | 20 % of G78 | 35 % of G78 | 117 % of G78 | 22 % of G78 | 44 % of G78 |  |  |  |  |
| B2 |  |  |  |  |  |  |  | 76.5 nM | 6800 M⁻¹ s⁻¹ | 16.8 nM | 22000 M⁻¹ s⁻¹ |
